This is an account of results in article PMC10916864 (Molecular Biology of the Cell, 2024).

For the test, the target named is T1, His-mNeon-tagged EBP50 PDZ1-PDZ2 fragment (human, UniProt O14745-1 1-298).
T1 sequence (looked up): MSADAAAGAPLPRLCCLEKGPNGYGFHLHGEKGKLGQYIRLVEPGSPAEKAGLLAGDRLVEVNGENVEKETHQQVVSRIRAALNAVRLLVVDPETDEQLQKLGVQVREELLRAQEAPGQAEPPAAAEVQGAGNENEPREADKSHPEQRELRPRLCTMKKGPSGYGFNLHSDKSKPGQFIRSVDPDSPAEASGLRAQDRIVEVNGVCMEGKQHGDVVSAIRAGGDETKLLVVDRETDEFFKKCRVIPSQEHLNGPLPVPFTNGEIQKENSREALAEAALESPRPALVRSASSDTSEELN
The test can be described thus: pull-down.

B1: GST-CDHR5 CD (GST fusion of the cytoplasmic tail of CDHR5) (domain or fragment, human, UniProt Q9HBB8-1 697-845, looked up)
chain: RLKCCCGKAPEPQPQGFDNQAFLPDHKANWAPVPSPTHDPKPAEAPMPAEPAPPGPASPGGAPEPPAAARAGGSPTAVRSILTKERRPEGGYKAVWFGEDIGTEADVVVLNAPTLDVDGASDSGSGDEGEGAGRGGGPYDAPGGDDSYI
With B1, the binding result is given as “binds”.
